Reference: publication PMC6150488 (Cell reports, 2018)

Target: glycogen-synthase kinase 3β (GSK3β) (UniProt P49841 1-420)
Assay: SPR

B1: Nav1.6 C-terminal tail (domain or fragment)
chain: LENFSVATEESADPLSEDDFETFYEIWEKFDPDATQFIEYCKLADFADALEHPLRVPKPNTIELIAMDLPMVSGDRIHCLDILFAFTKRVLGDSGELDILRQQMEERFVASNPSKVSYEPITTTLRRKQEEVSAVVLQRAYRGHLARRGFICKKTTSNKLENGGTHREKKESTPSTASLPSYDSVTKPEKEKQQRAEEGRRERAKRQKEVRESKC
Q: With B1 as the binder, how does the Kd read?
A: The Kd was 165 nM.
